Measurements as given in US20180088121A1.
Where no end group is shown, it is not given here.

Molecular target: TCRs of APC frameshift neopeptide specific T cell populations
Test: flow cytometry, double staining with PE and APC labelled neopeptide-MHC multimers of T cells after 2 weeks of in vitro expansion; first panel from the left

With LILYYILPRKV (peptide-MHC, part only; not given: HLA-A2 heavy chain, construct, human, part only, also: bound in HLA-A2 MHC multimer, PE and APC labelled) [A2/…] the number in the upper right quadrant (MHC-Multimer PE and APC double positive), no percent sign printed was 0.31.
